{"source": "patent US20200230184A1", "molecular_target": "human ApoB100 (human) (UniProt P04114)", "sequence (P04114 28-4563 limits assumed)": "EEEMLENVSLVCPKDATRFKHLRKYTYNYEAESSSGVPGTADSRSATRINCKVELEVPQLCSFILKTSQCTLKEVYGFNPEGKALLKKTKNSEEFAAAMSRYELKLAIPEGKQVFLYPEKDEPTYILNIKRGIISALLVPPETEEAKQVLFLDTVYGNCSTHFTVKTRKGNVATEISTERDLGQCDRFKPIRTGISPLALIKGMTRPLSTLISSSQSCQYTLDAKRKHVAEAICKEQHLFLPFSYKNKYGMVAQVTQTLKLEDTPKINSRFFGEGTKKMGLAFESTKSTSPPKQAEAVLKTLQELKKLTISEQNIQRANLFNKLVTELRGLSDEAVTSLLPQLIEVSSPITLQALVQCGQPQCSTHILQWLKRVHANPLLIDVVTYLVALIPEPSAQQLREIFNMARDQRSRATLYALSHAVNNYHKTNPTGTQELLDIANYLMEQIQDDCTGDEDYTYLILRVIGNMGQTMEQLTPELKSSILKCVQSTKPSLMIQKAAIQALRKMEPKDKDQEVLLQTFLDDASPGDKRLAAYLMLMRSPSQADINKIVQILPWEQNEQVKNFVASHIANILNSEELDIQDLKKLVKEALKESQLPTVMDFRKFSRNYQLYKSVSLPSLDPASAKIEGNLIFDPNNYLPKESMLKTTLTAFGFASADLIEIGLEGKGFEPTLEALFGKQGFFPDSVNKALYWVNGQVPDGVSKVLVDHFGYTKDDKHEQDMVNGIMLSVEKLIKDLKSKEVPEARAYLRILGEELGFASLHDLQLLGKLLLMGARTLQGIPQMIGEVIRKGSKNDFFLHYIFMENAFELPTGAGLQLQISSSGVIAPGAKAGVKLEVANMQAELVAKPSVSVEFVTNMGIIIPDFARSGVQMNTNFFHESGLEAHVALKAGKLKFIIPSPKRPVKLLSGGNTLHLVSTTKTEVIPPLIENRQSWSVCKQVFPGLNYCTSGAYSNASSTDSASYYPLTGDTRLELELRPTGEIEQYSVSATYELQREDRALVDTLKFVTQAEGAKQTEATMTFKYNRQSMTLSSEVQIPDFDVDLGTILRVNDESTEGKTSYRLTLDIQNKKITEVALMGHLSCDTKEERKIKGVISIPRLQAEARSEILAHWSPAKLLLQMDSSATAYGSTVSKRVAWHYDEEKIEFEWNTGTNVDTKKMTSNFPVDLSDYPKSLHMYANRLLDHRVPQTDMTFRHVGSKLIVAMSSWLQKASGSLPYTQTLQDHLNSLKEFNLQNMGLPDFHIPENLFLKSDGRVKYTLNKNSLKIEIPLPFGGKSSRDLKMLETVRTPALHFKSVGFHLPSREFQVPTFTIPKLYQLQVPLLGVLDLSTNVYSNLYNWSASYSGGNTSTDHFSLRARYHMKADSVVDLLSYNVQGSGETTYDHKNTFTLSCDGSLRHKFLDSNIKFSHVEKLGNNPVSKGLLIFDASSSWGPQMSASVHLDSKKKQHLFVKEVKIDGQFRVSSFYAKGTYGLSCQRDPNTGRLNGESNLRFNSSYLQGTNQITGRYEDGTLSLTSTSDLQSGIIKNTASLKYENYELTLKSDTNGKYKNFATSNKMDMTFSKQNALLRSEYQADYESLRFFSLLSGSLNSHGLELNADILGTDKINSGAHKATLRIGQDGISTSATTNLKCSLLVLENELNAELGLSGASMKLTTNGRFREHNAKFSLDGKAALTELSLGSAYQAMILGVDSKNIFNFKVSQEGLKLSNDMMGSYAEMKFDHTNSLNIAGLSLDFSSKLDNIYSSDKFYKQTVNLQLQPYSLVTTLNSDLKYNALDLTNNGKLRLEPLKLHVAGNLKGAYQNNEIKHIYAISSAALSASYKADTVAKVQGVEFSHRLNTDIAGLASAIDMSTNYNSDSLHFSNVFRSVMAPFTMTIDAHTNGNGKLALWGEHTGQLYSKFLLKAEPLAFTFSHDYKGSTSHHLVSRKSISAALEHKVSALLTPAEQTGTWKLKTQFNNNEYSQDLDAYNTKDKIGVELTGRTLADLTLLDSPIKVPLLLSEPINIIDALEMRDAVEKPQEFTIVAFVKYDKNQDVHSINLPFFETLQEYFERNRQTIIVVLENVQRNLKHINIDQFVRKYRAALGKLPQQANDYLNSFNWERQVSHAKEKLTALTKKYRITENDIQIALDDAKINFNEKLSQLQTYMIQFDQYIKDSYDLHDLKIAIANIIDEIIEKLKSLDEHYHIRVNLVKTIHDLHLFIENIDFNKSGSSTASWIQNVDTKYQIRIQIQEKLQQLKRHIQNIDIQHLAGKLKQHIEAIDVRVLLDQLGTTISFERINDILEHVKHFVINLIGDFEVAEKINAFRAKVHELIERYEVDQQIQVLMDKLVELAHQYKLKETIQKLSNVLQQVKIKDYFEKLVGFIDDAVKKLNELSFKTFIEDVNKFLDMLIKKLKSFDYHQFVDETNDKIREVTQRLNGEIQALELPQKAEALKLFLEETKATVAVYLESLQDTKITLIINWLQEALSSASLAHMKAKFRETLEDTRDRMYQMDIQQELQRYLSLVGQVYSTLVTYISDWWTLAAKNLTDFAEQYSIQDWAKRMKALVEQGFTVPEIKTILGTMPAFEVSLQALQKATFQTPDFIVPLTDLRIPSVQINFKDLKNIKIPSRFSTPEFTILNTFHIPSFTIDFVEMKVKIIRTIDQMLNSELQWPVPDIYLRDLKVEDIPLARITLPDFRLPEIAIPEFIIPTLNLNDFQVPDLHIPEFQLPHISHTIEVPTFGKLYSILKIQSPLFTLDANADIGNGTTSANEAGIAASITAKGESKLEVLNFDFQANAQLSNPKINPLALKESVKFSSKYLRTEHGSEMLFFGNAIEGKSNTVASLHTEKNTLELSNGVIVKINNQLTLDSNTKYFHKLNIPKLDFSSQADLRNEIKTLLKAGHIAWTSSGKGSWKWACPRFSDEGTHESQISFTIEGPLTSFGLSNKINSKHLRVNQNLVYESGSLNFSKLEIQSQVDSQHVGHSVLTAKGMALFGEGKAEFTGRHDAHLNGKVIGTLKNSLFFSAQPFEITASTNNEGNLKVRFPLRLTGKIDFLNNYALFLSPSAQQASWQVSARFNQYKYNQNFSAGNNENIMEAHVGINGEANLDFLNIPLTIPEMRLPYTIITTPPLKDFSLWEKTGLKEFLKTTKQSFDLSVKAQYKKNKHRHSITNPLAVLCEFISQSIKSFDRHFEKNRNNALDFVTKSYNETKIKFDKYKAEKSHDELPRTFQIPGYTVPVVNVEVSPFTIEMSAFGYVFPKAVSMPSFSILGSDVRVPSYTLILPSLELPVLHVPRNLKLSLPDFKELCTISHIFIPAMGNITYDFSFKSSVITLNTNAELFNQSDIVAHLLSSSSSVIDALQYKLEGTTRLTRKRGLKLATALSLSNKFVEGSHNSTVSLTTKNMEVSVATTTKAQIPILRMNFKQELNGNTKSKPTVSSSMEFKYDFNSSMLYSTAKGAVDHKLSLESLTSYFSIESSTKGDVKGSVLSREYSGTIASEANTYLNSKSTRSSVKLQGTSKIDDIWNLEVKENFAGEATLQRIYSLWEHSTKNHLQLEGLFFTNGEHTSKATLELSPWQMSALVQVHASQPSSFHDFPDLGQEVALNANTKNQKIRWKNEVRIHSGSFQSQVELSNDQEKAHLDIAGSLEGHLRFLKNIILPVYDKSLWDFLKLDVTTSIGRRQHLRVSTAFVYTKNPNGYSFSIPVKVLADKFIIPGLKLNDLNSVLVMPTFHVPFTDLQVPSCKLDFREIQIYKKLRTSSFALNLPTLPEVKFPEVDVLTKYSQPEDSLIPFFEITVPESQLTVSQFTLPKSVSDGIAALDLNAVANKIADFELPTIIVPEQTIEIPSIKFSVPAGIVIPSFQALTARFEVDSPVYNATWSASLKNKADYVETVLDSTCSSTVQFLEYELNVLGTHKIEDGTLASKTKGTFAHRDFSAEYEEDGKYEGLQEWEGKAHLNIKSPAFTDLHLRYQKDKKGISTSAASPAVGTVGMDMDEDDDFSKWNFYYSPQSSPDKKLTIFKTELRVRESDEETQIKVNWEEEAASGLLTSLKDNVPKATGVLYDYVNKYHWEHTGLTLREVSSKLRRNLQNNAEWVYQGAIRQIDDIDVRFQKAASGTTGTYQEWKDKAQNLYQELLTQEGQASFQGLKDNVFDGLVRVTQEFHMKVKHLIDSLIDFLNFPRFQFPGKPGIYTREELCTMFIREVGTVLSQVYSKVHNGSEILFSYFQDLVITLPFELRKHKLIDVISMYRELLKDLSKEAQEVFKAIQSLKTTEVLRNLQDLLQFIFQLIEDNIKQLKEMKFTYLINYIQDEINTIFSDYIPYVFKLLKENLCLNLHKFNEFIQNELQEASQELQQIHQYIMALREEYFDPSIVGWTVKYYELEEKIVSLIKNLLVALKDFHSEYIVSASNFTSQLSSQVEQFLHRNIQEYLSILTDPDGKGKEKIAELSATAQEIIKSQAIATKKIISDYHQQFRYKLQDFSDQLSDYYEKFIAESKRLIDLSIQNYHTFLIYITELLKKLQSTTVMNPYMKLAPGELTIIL", "test": "cell-based or functional assay", "data": [{"substance": "human low density lipoprotein receptor (hLDLR) (from UniProt P01130 22-860)", "values": [{"measurement": "reduction of serum cholesterol in LAHB mice after AAV8.TBG.hLDLR (% reduction of serum cholesterol)", "result": 30}]}]}
